The source of these data is US20220213221 (published 2022).

The Kd is the constant that tells how readily two partners part at equilibrium.

In test [1] the target is T1, RhoA T19N (human, UniProt P61586). The experiment in a line: ELISA. (ELISA stands for enzyme-linked immunosorbent assay.)
The target of test [2] is RhoA wild type GDP-loaded (human, UniProt P61586). In words: ELISA.
The next test concerns the target T2, RhoC Q63L (human, UniProt P08134).
T2 chain: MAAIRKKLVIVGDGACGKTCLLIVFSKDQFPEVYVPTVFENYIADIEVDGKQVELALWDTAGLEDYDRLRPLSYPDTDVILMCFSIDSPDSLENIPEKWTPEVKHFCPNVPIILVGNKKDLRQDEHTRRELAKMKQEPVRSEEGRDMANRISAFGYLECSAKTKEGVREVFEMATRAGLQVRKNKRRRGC

In the next test the target is RhoA Q63L (human, UniProt P61586).
Test [3] addresses T1, RhoA T19N.
A further test addresses T3, RhoB Q63L (human, UniProt P62745).
T3 chain: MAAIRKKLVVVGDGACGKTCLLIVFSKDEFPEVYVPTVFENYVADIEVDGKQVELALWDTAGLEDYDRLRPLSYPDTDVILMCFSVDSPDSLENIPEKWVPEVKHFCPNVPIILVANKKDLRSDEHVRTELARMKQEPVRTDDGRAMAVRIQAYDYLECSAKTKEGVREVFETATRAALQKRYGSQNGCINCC

Read-outs that look alike come from different tables or passages of the source.

T1 sequence (P61586 1-190 T19N): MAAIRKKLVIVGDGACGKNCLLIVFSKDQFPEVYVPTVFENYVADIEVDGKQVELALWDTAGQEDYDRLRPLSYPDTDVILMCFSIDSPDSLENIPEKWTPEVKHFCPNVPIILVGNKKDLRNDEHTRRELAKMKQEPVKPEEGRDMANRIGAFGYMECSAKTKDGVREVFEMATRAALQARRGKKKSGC

B1: H12 (antibody, V domains shown)
VH: VQLQASGGGFVQPGGSLRLSCAASGDGSRIYAMGWFRQAPGKEREFVSAISWEQDWEHYYADSVKGRFTISRDNSKNTVYLQMNSLRAEDTATYYCAAFMTPHRNLTSMYWGQGTQVTVSS
In the case of B1, the binding result (with RhoA T19N [1]; in test [2]) was “no binding” in each case. Also, the results for the Kd in the test with RhoC Q63L and in the test with RhoA Q63L were 0.0479 nM and 0.265 nM, respectively.

B2: 5SNP48 (antibody, V domains shown)
VH: VQLQASGGGFVQPGGSLRLSCAASGTSWFTEVMGWFRQAPGKEREFVSAISGLHDVGTYYADSVKGRFTISRDNSKNTVYLQMNSLRAEDTATYYCAALDKWYTKAMDARKDYWGQGTQVTVSS
For B2, the binding result in the test with RhoA T19N [3] is listed as “no binding”.

B3: B6 (antibody, V domains shown)
VH: VQLQASGGGFVQPGGSLRLSCAASGYGSTIETMGWFRQAPGKEREFVSAISRAPGPSQYYADSVKGRFTISRDNSKNTVYLQMNSLRAEDTATYYCAPINNRTMQDSMFLWNYWGQGTQVTVSS
Take B3: in the test with RhoB Q63L, binding was put at a Kd of 0.71 nM.

B4: 5SNP65 (antibody, V domains shown)
VH: VQLQASGGGFVQPGGSLRLSCAASGATYEGEAMGWFRQAPGKEREFVSAISSYPSVISYYADSVKGRFTISRDNSKNTVYLQMNSLRAEDTATYYCAYWVNHEGTIREIYWGQGTQVTVSS
As to B4, in the test with RhoA T19N [3], the binding result was “no binding”.

B5: 4SNP36 (antibody, V domains shown)
VH: VQLQASGGGFVQPGGSLRLSCAASGTSWKDYTMGWFRQAPGKEREFVSAISEGPGAQYYYADSVKGRFTISRDNSKNVYLQMNSLRAEDTATYYCAYSSWQPYVSYWGQGTQVTVSS
Consider B5, for which the results for the Kd with RhoB Q63L, with RhoC Q63L and in the test with RhoA Q63L were 0.278 nM, 0.0831 nM and 0.296 nM, respectively.
